Here are results for 5 molecules from US20250296971A1, “GASTRIC INHIBITORY PEPTIDE RECEPTOR LIGANDS” (priority 2021, published 2025).

*1 amine or outer side, *2 acyl side, *3 side chain or, on linkers, in order; H or OH if unused. Bridges are numbered along the chain shown (N, C = ends). Where no end group is shown, it is not given here. [ ]: non-standard residue; d: D form. The star is where a group is joined. Ttds = 1,13-diamino-4,7,10-trioxatridecan-succinamic acid, NCCCOCCOCCOCCCNC(=O)CCC(=O)*; dE(AGLU) = D-glutamic acid bearing 1-amino-1-deoxy-D-glucitol; Pro(trans-4-NH2) = O=C([C@@H]1C[C@@H](N[*:3])CN1[*:1])[*:2]; DOTA = O=C(O)CN1CCN(CC(=O)O)CCN(CC(=O)*)CCN(CC(=O)O)CC1; Trp(5-Cl) = N[C@@H](Cc1c[nH]c2ccc(Cl)cc12)C(=O)O; Pyridine(2,6-diCH2) = c1cc(C[*:1])nc(C[*:2])c1; APAc = 4-amino-1-carboxymethylpiperidine; Ethylenediamine = C(CN[*:2])N[*:1]; Glutaryl = O=C(CCCC(=O)[*:2])[*:1]; AGLU = 1-amino-1-deoxy-D-glucitol; Hyp = O=C(O)[C@@H]1C[C@@H](O)CN1; dGlu(AGLU) = not defined here; hSer = N[C@@H](CCO)C(=O)O; 3CbBn = 3-carboxybenzyl; Api = NC1(C(=O)O)CCNCC1; Aib = CC(C)(N)C(=O)O Bounds are passed on as bounds.

The target in assay [1] is human gastric inhibitory polypeptide receptor (human GIPR) (human) (UniProt P48546). Briefly: radioligand binding assay, 111In-labeled compound on CHO cells expressing GIPR, 6 h 37 °C; pKD category A = pKD > 9.5.
The target of assay [2] is biotinylated extracellular domain of the human GIP receptor (bioGIPR) (human) (UniProt P48546). Nature of the assay: SPR single cycle kinetics, bioGIPR captured on chip; category D: t1/2 <2.0 min.
Assay [3] has the same target. Nature of the assay: SPR single cycle kinetics, bioGIPR captured on chip; category B: pKD 8.1-9.0.
Assay [4] deals with human Gastric Inhibitory Peptide Receptor (human) (UniProt P48546). Nature of the assay: FACS competition with GIP-057 on CHO-K1-hGIPR cells; pIC50 category B: 7.1-8.0.
Assay [5] addresses biotinylated extracellular domain of the human GIP receptor (bioGIPR) (human) (UniProt P48546). Nature of the assay: SPR single cycle kinetics, bioGIPR captured on chip; category C: t1/2 5-2.1 min.
Assay [6] concerns the target human Gastric Inhibitory Peptide Receptor (GIPR) (human) (UniProt P48546). Briefly: FACS competition vs biotinylated GIP-057 on CHO-K1-hGIPR cells; category B: pIC50 7.1-8.0.
For a further assay, the target named is mouse GIPR (mouse) (UniProt Q0P543). Nature of the assay: radioligand binding assay, 111In-labeled compound on CHO-VGT cells expressing mouse GIPR, 6 h 37 °C; pKD category C = pKD < 9.0.
The next assay has as its target rat GIPR (rat) (UniProt P43219). Nature of the assay: radioligand binding assay, 111In-labeled compound on CHO-VGT cells expressing rat GIPR, 6 h 37 °C; pKD category B = pKD between 9.0 and 9.5.
For the next assay, the target named is dog GIPR (dog). Nature of the assay: radioligand binding assay, 111In-labeled compound on CHO-VGT cells expressing dog GIPR, 6 h 37 °C; pKD category A = pKD > 9.5.
Chain of dog GIPR (dog) (chain, as listed by the source limits assumed, form in doubt): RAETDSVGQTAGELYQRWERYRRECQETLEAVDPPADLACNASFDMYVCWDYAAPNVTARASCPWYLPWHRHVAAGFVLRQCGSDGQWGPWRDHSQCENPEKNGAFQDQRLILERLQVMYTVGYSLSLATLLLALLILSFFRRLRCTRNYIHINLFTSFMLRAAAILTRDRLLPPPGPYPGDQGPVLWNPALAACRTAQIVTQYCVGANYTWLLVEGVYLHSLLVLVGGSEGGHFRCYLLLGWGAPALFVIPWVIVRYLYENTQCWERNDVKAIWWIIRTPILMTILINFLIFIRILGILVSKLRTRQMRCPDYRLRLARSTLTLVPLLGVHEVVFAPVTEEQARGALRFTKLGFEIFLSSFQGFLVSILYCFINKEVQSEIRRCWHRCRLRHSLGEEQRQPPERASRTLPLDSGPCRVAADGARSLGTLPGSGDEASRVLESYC

Chain of biotinylated extracellular domain of the human GIP receptor (bioGIPR) (human) (P48546 24-138 limits assumed): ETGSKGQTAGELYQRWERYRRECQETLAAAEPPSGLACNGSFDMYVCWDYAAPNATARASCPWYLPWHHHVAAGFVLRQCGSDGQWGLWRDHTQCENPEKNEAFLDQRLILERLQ
Chain of human gastric inhibitory polypeptide receptor (human GIPR) (human) (P48546 22-466 limits assumed): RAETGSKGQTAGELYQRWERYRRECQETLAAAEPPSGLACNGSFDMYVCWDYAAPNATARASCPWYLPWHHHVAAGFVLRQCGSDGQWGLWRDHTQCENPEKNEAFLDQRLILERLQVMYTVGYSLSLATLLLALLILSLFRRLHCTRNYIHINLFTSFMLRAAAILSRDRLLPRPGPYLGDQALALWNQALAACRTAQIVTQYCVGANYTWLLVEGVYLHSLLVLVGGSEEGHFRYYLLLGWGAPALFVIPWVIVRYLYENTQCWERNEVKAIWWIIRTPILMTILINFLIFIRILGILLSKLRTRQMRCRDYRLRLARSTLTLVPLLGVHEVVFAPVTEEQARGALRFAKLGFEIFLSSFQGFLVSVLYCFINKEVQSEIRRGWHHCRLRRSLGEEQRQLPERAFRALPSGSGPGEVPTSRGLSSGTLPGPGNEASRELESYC
Chain of human Gastric Inhibitory Peptide Receptor (human) (P48546 22-466 limits assumed): as above
Chain of rat GIPR (rat) (P43219 19-455): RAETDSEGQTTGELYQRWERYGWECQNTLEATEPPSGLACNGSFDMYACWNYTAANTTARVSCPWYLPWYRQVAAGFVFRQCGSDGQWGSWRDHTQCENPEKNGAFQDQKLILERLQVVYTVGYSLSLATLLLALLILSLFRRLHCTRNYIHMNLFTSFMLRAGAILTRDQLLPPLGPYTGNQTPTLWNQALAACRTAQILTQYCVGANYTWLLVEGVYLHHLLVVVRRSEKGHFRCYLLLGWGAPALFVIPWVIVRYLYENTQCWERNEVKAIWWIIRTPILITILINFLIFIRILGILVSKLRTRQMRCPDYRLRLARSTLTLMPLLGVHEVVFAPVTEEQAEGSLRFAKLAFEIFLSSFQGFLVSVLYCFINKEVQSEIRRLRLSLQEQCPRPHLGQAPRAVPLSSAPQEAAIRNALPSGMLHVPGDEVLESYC
Chain of mouse GIPR (mouse) (Q0P543 19-460): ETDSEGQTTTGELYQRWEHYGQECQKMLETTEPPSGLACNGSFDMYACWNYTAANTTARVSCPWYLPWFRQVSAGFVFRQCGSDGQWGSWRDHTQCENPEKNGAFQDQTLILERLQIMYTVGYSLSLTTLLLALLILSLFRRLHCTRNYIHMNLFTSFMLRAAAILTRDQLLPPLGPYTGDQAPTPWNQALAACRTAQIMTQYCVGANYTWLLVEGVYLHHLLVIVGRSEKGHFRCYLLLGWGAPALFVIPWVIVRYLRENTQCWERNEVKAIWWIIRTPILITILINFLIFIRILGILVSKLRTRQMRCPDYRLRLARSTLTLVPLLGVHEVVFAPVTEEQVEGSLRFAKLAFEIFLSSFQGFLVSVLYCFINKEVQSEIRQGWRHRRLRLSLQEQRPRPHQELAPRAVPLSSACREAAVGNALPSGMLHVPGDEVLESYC

B1: 111In-labeled AGLU-Glutar-Asp-Trp-5Clw-Hyp-Glu-leu-[Cys(2Lut)-Apc(DOTA)-Leu-Ile-Cys]-APAc-glu(AGLU)-NH2 (111In-GIP-002) (peptide)
peptide: {AGLU-Glutaryl}-DW[Trp(5-Cl)][Hyp]E[dL]C[Api](DOTA)LIC-{APAc-dGlu(AGLU)-NH2}
modifications: linker 7-11 via Pyridine(2,6-diCH2); reading uncertain; also: DOTA complexed with 111In
Take B1: in assay [1], the pKD is more than 9.5 pkd.

B2: AGLU-Glutar-APAc-Hse-Trp-5Clw-Hyp-Glu-leu-[Cys(2Lut)-Apc(DOTA)-Leu-Ile-Cys]-APAc-glu(AGLU)-NH2 (peptide)
peptide: {AGLU-Glutaryl-APAc}-[hSer]W[Trp(5-Cl)][Hyp]E[dL]C[Api](DOTA)LIC-{APAc-dE(AGLU)-NH2}
modifications: linker 7-11 via Pyridine(2,6-diCH2)
For the molecule B2, the t1/2 in assay [2] is less than 2 min. This molecule also showed a pKD in assay [3] of 8.1 to 9 pkd. The pIC50 in [4] lay in the range of 7.1 to 8 pic50.

B3: AGLU-Glutar-APAc-Ser-Trp-5Clw-Tap(AGLU-Glutar)-Hse-leu-[Cys(2Lut)-Apc(DOTA)-Leu-Ile-Cys]-APAc-glu(AGLU)-NH2 (peptide)
peptide: SWXXXXCXLIC
modifications: AGLU-Glutar-APAc; 5Clw; Tap(AGLU-Glutar); Hse; D-leu; Apc(DOTA); 2Lut bridge Cys-Cys; APAc; D-glu(AGLU); C-term NH2
Turning to B3, in [2], the t1/2 was less than 2 min. In addition, in assay [3], the pKD was in the range of 8.1 to 9 pkd. Further, in assay [4], the pIC50 lay in the range of 7.1 to 8 pic50.

B4: DOTA-Ttds-Asp-Trp-5Clw-Pro-Glu-leu-[Cys(3CbBn)-Aib-Leu-Ile-en] (peptide)
peptide: {DOTA-Ttds}-DW[Trp(5-Cl)]PE[dL]C[Aib]LI[Ethylenediamine]
modifications: bridge (positions not given here) via 3CbBn; not fully specified (bridges); printed as DOTA-Ttds-Asp-Trp-5Clw-Pro-Glu-leu-[Cys(3CbBn)-Aib-Leu-Ile-en]
As to B4, in [5], the t1/2 fell in the range of 2.1 to 5 min. In assay [3], the pKD fell in the range of 8.1 to 9 pkd. In assay [6], this molecule gave a pIC50 of 7.1 to 8 pic50.

B5: 111In-labeled AGLU-Glutar-Asp-Trp-5Clw-Tap-Glu-leu-[Cys(2Lut)-Apc(DOTA)-Leu-Ile-Cys]-APAc-glu(AGLU)-NH2 (111In-GIP-001) (peptide)
peptide: {AGLU-Glutaryl}-DW[Trp(5-Cl)][Pro(trans-4-NH2)]E[dL]C[Api](DOTA)LIC-{APAc-dE(AGLU)-NH2}
modifications: linker 7-11 via Pyridine(2,6-diCH2); also: DOTA complexed with 111In
Turning to B5, the pKD with mouse GIPR (mouse) is less than 9 pkd; in assay [1] it was more than 9.5 pkd; with rat GIPR (rat), 9 to 9.5 pkd; with dog GIPR (dog) it was more than 9.5 pkd.
